Laboratory results from patent US20260042834A1 (HBM ALPHA THERAPEUTICS, published 2026).
Numbering of substitutions follows the chain as printed.

T1: biotinylated CRH (human and mouse, not fully specified; biotinylated, position not stated)
T1 construct: also called Biotin-CRH; biotin-labeled CRH
T1 peptide: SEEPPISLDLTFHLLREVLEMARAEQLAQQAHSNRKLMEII

T2: corticotropin-releasing hormone (CRH) peptide (human and mouse (same sequence), not fully specified)
T2 peptide: T1 peptide

B1: PR302334-10 (antibody, human IgG1, kappa, V domains shown)
VH: EVQLVESGGGLVQPGGSLRLSCAASGFTFSTYAMSWVRQAPGKGLEWVASIRSGGTTYYPDSVKGRFTISRDNSKNTLYLQMNSLRAEDTAVYYCTRGIDWGQGTTVTVSS
VL: DIVMTQSPDSLAVSLGERATINCKASQSVNNDVAWYQQKPGQPPRLLIYYASNRYTGVPDRFSGSGSGTDFTLTISSLQAEDLAVYFCQQDYSSWTFGGGTKVEIKR
notes: Humanized variant of PR302334
B2: PR302334-27 (antibody, human IgG1, kappa, V domains shown)
VH: B1 VH with T77S
VL: DIQMTQSSLSASVSLGDRVTITCKASQSVNNDVAWYQQKPGKAPRLLIYYASNRYTGVPSRFSGSGSGTDFTFTISSLQPEDLATYFCQQDYSSWTFGGGTKVEIKR
notes: Humanized variant of PR302334
B3: PR302334-8 (antibody, human IgG1, kappa, V domains shown)
VH: B1 VH
VL: EIVMTQSPATLSVSPGERATLSCKASQSVNNDVAWYQQKPGQAPRLLIYYASNRYTGIPARFSGSGSGTEFTLTISSLQSEDLAVYFCQQDYSSWTFGGGTKVEIKR
notes: Humanized variant of PR302334
B4: PR302334-24 (antibody, human IgG1, kappa, V domains shown)
VH: B1 VH with Q13K, S74A, T77S
VL: B1 VL
notes: Humanized variant of PR302334
B5: PR302334-11 (antibody, human IgG1, kappa, V domains shown)
VH: B1 VH
VL: B2 VL with L83I, F87Y
notes: Humanized variant of PR302334
B6: PR302334-25 (antibody, human IgG1, kappa, V domains shown)
VH: B1 VH with Q13K, S74A, T77S
VL: B2 VL
notes: Humanized variant of PR302334
B7: PR301777 (antibody, human IgG1, kappa, V domains shown)
VH: EMKLEESGGGLVQPGGSMKLSCVASGFTFSNYWMNWVRQSPEKGLEWVAEIRLKSNNYATHYAESVKGRFTISRDDSKSGVYLQMNNLGAEDTGIYYCTVGTLVYWGQGTLVTVSA
VL: DIVLTQSPASLAVSLGQRATISCRASQSVSTSTYNYMHWFQQKPGQPPKLLIKFASNLESGVPARFSGSGSGTDFTLNIHPVEEEDTATFYCQHSWEIPYTFGGGTKLEIKR
notes: Series 5; mouse variable domains with human IgG1 wildtype Fc
B8: PR302341-43 (antibody, human IgG1, kappa, V domains shown)
VH: QVQLVQSGAEVKKPGASVKVSCKASGYTFTDYFMKWVRQAPGQGLEWMGVINPNNADIFYNQKFKGRVTMTVDKSTSTAYMELSSLRSEDTAVYYCARGTDRALFAYWGQGTLVTVSS
VL: DVVMTQTPLSSPVTLGQPASISCRSGQSIVHSDGNTYLEWYQQRPGQPPRLLIYKVSNRFSGVPDRFSGSGAGTDFTLKISRVEAEDLGVYYCFQGSHIPWTFGGGTKVEIKR
B9: PR302341-44 (antibody, human IgG1, kappa, V domains shown)
VH: B8 VH with N55S, A56G
VL: B8 VL
B10: PR302341-46 (antibody, human IgG1, kappa, V domains shown)
VH: B8 VH
VL: B8 VL with G34A
B11: PR302341-45 (antibody, human IgG1, kappa, V domains shown)
VH: B8 VH with N55Q, A56G
VL: B8 VL
B12: PR302341-47 (antibody, human IgG1, kappa, V domains shown)
VH: B8 VH with N55S, A56G
VL: B8 VL with G34A
B13: PR302341-48 (antibody, human IgG1, kappa, V domains shown)
VH: B8 VH with N55Q, A56G
VL: B8 VL with G34A
B14: PR005656 (antibody, human IgG1, kappa, V domains shown)
VH: EVQLVESGGVLVQPGGSLRLSCAASGFTFSSYWMTWVRQAPGKGLEWVANIKQEGSEKYYVDSVKGRFTISRDNAKNSLFLQMNSLRAEDTAVYYCARTLIFDYWGQGTLVTVSS
VL: DIVMTQSPLSLPVTPGEPASISCRSSQSLLHSTGYNSLEWYLQKPGQSPQLLIYLGSNRASGVPDRFSGSGSGTDFTLKISRVEAEDVGIYYCMQTLQTPITFGQGTRLEIKR
notes: PTM-removal variant of PR004290
B15: PR006669 (antibody, human IgG1, kappa, V domains shown)
VH: EVQLVESGGGLVQPGGSLRLSCAASGFTFSDNWMSWVRQAPGKGLEWVANIKQDGSENYYVDSVKGRFTISRDNAKNSLYLQMNSLRAEDTAVYYCSRGLALWGWGQGTLVTVSS
VL: B14 VL with Q6H, E17D, S37Y, E39D, I80F, S81I, I90V, T96A, I101Y, R108K
notes: Series 2; human IgG1 wildtype Fc; also called Hybridoma Clone 52g7
B16: PR006150 (antibody, human IgG1, kappa, V domains shown)
VH: B14 VH with E54D, G55S
VL: B14 VL with N36D
notes: as for B14
B17: PR006746 (antibody, human IgG1, kappa, V domains shown)
VH: B15 VH with G55S
VL: B14 VL with Q6H, E17D, S37Y, E39D, I80F, S81I, I90V, T96A, I101Y, R108K
notes: PTM-removal variant of PR006669
B18: PR005662 (antibody, human IgG1, kappa, V domains shown)
VH: B14 VH with E54D, G55A
VL: B14 VL with N36Q
notes: as for B14
B19: PR006145 (antibody, human IgG1, kappa, V domains shown)
VH: B14 VH
VL: B14 VL with N36S
notes: as for B14
B20: PR006144 (antibody, human IgG1, kappa, V domains shown)
VH: B14 VH
VL: B14 VL with S37P
notes: as for B14
B21: PR006143 (antibody, human IgG1, kappa, V domains shown)
VH: B14 VH
VL: B14 VL with N36H
notes: as for B14
B22: PR006148 (antibody, human IgG1, kappa, V domains shown)
VH: B14 VH with E54D, G55A
VL: B14 VL with S37P
notes: as for B14
B23: PR006149 (antibody, human IgG1, kappa, V domains shown)
VH: B14 VH with E54D, G55A
VL: B14 VL with N36S
notes: as for B14
B24: PR006151 (antibody, human IgG1, kappa, V domains shown)
VH: B14 VH with E54D, G55S
VL: B14 VL with N36H
notes: as for B14
B25: PR005657 (antibody, human IgG1, kappa, V domains shown)
VH: B14 VH with E54D, G55A
VL: B14 VL
notes: as for B14
B26: PR006153 (antibody, human IgG1, kappa, V domains shown)
VH: B14 VH with E54D, G55S
VL: B14 VL with N36S
notes: as for B14
B27: PR006142 (antibody, human IgG1, kappa, V domains shown)
VH: B14 VH
VL: B14 VL with N36D
notes: as for B14
B28: PR006147 (antibody, human IgG1, kappa, V domains shown)
VH: B14 VH with E54D, G55A
VL: B14 VL with N36H
notes: as for B14
B29: PR005658 (antibody, human IgG1, kappa, V domains shown)
VH: B14 VH with E54D
VL: B14 VL with N36Q
notes: as for B14
B30: PR006146 (antibody, human IgG1, kappa, V domains shown)
VH: B14 VH with E54D, G55A
VL: B14 VL with N36D
notes: as for B14
B31: PR302309 (antibody, human IgG1, kappa, V domains shown)
VH: QIQLVQSGPELKKPGETVKISCKASGYTFTNYGMNWVKQAPGKVLKWMGWINTYTGEPIYTDDFKGRFAFSLETSASTAYLQINNLKNEDTATYFCSRSTMITTGGVFAYWGQGTLVTVSA
VL: DVLMAQTPLSLPVSLGDQASISCRSSQTIVHSDGNTYLEWYLQKPGQSPKLLIYKVSNRFSGVPDRFSGSGSGTDFTLKISRVEAEDLGVYYCFQGSHVPWTFGGGTKLEIKR
notes: Series 7; mouse variable domains with human IgG1 wildtype Fc

How the values were obtained:
[1] = target: T1, biotinylated CRH; assay: Octet BLI, biotinylated CRH on SA sensor
Method: Octet® Red 96e was used for affinity measurement. Octet® running buffer was prepared by diluting kinetics buffer 10× (Fortebio, Cat #18-1105) in PBS according to the manufacturer's instructions. Two columns of SA sensors (Fortebio, Cat #18-5019) were hydrated in running buffer for 10 mins, one for ligand capturing and the other for reference. Antibodies were 2-fold diluted and added into a 96-well plate. […] After a 60-second baseline step, sensors were dipped into analyte and buffer wells successively, with the association and dissociation time of 180 seconds and 800 seconds, respectively. […] Signals of reference wells and reference sensors were subtracted by selecting “Double reference” before data fitting.

[2] = target: T2, corticotropin-releasing hormone (CRH) …; assay: cell-based or functional assay

Kd [1] [nM] | koff [1] [s⁻¹] | kon [1] [M⁻¹ s⁻¹] | hCRHR1 Luciferase Reporter Assay IC50 [2] [nM] | mCrhr1 Luciferase Reporter Assay IC50 [2] [nM] | Binder
< 0.001 | < 1e-07 | 6840 |  |  | B1
< 0.001 | < 1e-07 | 302000 |  |  | B2
< 0.001 | < 1e-07 | 14700 |  |  | B3
< 0.001 | < 1e-07 | 606000 |  |  | B4
< 0.001 | < 1e-07 | 684000 |  |  | B5
< 0.001 | < 1e-07 | 285000 |  |  | B6
0.00124 |  |  |  |  | B7
 |  |  | 0.512 | 1.37 | B8
 |  |  | 0.646 |  | B9
 |  |  | 1.27 | 1.52 | B10
 |  |  | 0.35 | 1.83 | B11
 |  |  | 1.04 | 1.6 | B12
 |  |  | 0.507 | 1.46 | B13
0.0627 | 4.55e-05 | 726000 |  |  | B14
0.12 |  |  |  |  | B15
0.102 | 5.66e-05 | 555000 |  |  | B16

Kd [1] [nM] | koff [1] [s⁻¹] | kon [1] [M⁻¹ s⁻¹] | hCRHR1 Luciferase Reporter Assay IC50 [2] [nM] | mCrhr1 Luciferase Reporter Assay IC50 [2] [nM] | Binder
0.0751 | 8.69e-05 | 1.16e+06 |  |  | B17
0.209 | 8.27e-05 | 396000 |  |  | B18
0.305 | 6.75e-05 | 222000 |  |  | B19
0.0895 | 4.47e-05 | 499000 |  |  | B20
0.0623 | 2.85e-05 | 457000 |  |  | B21
0.106 |  |  |  |  | B22
0.16 | 7.78e-05 | 487000 |  |  | B23
0.16 | 8e-05 | 500000 |  |  | B24
0.0913 |  |  |  |  | B25
0.171 | 8.36e-05 | 487000 |  |  | B26
0.123 | 4.08e-05 | 333000 |  |  | B27
0.142 | 6.96e-05 | 489000 |  |  | B28
0.179 | 9.11e-05 | 509000 |  |  | B29
0.109 | 4.84e-05 | 445000 |  |  | B30
0.0153 | 4.03e-06 | 263000 |  |  | B31
